Measured values from patent US20140221623A1 (Ablynx, published 2014).
“And” between values parts separate entries of the source, which are not always exact repeats. Equal entries are not always repeated.

T1: IL6-R on U266 cells (human, UniProt P08887 20-468)
T1 sequence (looked up): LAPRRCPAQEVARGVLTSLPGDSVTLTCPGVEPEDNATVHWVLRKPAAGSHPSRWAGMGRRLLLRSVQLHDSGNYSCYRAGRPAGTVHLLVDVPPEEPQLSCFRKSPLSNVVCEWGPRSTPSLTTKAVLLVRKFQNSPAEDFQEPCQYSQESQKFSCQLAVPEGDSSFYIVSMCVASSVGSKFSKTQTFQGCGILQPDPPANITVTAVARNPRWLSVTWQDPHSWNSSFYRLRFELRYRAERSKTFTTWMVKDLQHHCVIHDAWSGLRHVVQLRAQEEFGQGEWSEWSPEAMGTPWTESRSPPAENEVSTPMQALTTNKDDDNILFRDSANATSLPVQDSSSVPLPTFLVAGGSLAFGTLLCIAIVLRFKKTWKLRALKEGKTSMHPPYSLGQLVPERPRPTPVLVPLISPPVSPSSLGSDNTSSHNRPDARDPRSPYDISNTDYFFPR

T2: Human soluble IL6-R (human, UniProt P08887 20-358)
T2 construct: Bought soluble receptor; biotinylated in some Alphascreen assays; also called sIL6-R; hIL-6R
T2 sequence (looked up): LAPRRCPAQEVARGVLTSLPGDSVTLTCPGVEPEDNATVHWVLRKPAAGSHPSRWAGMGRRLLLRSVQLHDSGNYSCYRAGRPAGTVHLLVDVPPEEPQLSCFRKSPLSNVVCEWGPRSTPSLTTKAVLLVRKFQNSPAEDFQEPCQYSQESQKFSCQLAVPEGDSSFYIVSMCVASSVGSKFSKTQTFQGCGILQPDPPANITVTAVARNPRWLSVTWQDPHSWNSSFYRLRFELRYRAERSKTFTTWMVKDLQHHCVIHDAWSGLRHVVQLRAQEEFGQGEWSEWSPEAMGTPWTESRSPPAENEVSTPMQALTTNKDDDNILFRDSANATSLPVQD


How the values were obtained:
IL6-R on U266 cells [1] = target: T1, IL6-R on U266 cells; test: cell-based or functional assay
IL6-R on U266 cells [2] = target: T1, IL6-R on U266 cells; test: cell-based or functional assay; remark: listed apart in the source
Human soluble IL6-R [3] = target: T2, Human soluble IL6-R; test: SPR (Biacore), off-rate
Human soluble IL6-R [4] = target: T2, Human soluble IL6-R; test: SPR (Biacore 3000), IL6-R on CM5 chip
Human soluble IL6-R [5] = target: T2, Human soluble IL6-R; test: Alphascreen, 100 nM Nanobody; competitor Reference-Fab on beads
IL6-R on U266 cells [6] = target: T1, IL6-R on U266 cells; test: cell-based or functional assay; remark: listed apart in the source

Row | Binder | IC50, XG-1 proliferation (IL6-R on U266 cells [1]) | IC50, TF-1 proliferation (IL6-R on U266 cells [2]) | koff (Human soluble IL6-R [3]) | koff (Human soluble IL6-R [4]) | % binding retained in competition with Reference-Fab (Human soluble IL6-R [5]) | Kd (Human soluble IL6-R [4]) | kon (Human soluble IL6-R [4]) | IC50, XG-1 proliferation with 1 mg/mL human serum albumin (IL6-R on U266 cells [6])
1 | IL6R07 (VHH, also called PMP33A3; PMP 33 A3) VHH: EVQLVESGGGLVQPGGSLRLSCAASGFTLDYGAIGWFRQAPGKEREGVSCISSSTGSTYYADSVKGRFTISRDNGKNTVYLQMNSLKPEDTAVYYCAADKMWSPCLVAANEEALFEYDYWGQGTQVTVSS | 50.5 nM | 35 nM | 0.000242 s⁻¹ | 0.000242 s⁻¹ | 80% |  |  | 
2 | IL6R01 (VHH, also called PMP28E11; PMP 28 E11) VHH: EVQLVESGGGFVQAGGSLRLSCIASGDNFSINRMGWYRQALGKQRELVAIITNHGSTNYADAVKGRFTISRDYAKNTVYLQMNGLKPDDTAVYYCNAYISEVGTWRDDYWGQGIQVTVSS |  |  |  | 0.00011 s⁻¹ | 49% | 0.418 nM | 262000 M⁻¹ s⁻¹ | 
3 | IL6R13 (VHH, also called PMP35H4; PMP 35 H4) VHH: EVQLVESGGGLVQPGGSLRLSCAASGFTFDDYGMSWVRQAPGRATEWVSAISWNGNNTYYTESMKGRFTISRDNAKNTVYLQMNSLKPEDTAVYYCVKGSTAIVGVPPTYPDEYDYWGQGTQVTVSS | 1.4 nM | 7.2 nM | 0.000178 s⁻¹ | 0.000121 s⁻¹ and 0.000109 s⁻¹ and 0.000178 s⁻¹ | 25% | 0.53 nM and 0.79 nM | 231000 M⁻¹ s⁻¹ and 137000 M⁻¹ s⁻¹ | 1.32 nM
4 | IL6R11 (VHH, also called PMP35E11; PMP 35 E11) VHH: EVQLVESGGGLVQAGGSLRLSCAASGFTFDDYAIGWFRQAPGKEHEGVSCISSSDGSTYYADSVKGRFTISSDNAKNTVYLQMNSLKPEDTAVYYCAAERDVPARSLCGSYYWYDYRGQGTQVTVSS | 5.37 nM | 6.62 nM | 0.000417 s⁻¹ | 0.00034 s⁻¹ and 0.000396 s⁻¹ and 0.000417 s⁻¹ | 40% | 0.87 nM and 1.85 nM | 391000 M⁻¹ s⁻¹ and 215000 M⁻¹ s⁻¹ | 
5 | IL6R12 (VHH, also called PMP35F4; PMP 35 F4) VHH: EVQLVESGGGLVQAGGSLRLSCAASGRTFSSYDMGWYRQAPGKEREFVAIITWNSSTYYADSVKGRFTISRDNAKNTVYLQMNSLKPEDTAIYYCNAQYGLGYAEDYWGQGTQVTVSS | 2.75 nM | 6.92 nM | 0.000896 s⁻¹ | 0.00116 s⁻¹ and 0.000896 s⁻¹ | 103% | 1.71 nM | 678000 M⁻¹ s⁻¹ | 
6 | IL6R02 (VHH, also called PMP30C11; PMP 30 C11) VHH: EVQLVESGGGLVQAGGSLRLSCAASGRTFSSYDMGWYRQAPGKEREFVAVISRSGSSTYYADSVKGRFTISRDNAKNTVYLQMNSLKPEDTAIYYCKAEVVAGDYDYWGQGTQVTVSS | 31 nM | 29.7 nM | 0.00294 s⁻¹ | 0.00294 s⁻¹ and 0.00495 s⁻¹ | 86% | 5.9 nM | 840000 M⁻¹ s⁻¹ | 
7 | IL6R10 (VHH, also called PMP35C10; PMP 35 C10) VHH: EVQLVESGGGLVQAGGSLRLSCAASGRTFSSYDMGWYRQAPGKEREFVAVIHWSSGSTYYADPVKGRFTISRDNAKNTVYLQMNSLKPEDTAIYYCNAFLPGPEGFHDYWGQGTQVTVSS | 2.55 nM | 9.15 nM | 0.000509 s⁻¹ | 0.000526 s⁻¹ and 0.000509 s⁻¹ | 102% | 1.27 nM | 414000 M⁻¹ s⁻¹ | 
8 | IL6R06 (VHH, also called PMP32E2; PMP 32 E2) VHH: EVQLVESGGGLVQAGGSLRLSCAASGNIFDDNTMGWTWNRQPPGKQRELVAIIATDGSTNYADSVKGRFTISRDNAKNTVYLQMNSLKPEDTAVYYCNLFSLRLGRDYWGQGTQVTVSS | 42 nM | 77.2 nM | 0.000886 s⁻¹ |  | 36% | 7.1 nM | 1.07e+06 M⁻¹ s⁻¹ | 
9 | IL6R05 (VHH, also called PMP32E10; PMP 32 E10) VHH: EVQLVESGGGLVQPGGSLRLSCAASGFTFGSYDMSWVRQAPGKGPEWVSAINSGGGSTYYADSVKGRFTISRDNAKNTLYLQMNSLKPEDTAVYYCATDWRYSDYDLPLPPPGDYWGQGTQVTVSS | 7.29 nM | 19.9 nM | 0.00127 s⁻¹ | 0.00141 s⁻¹ and 0.00127 s⁻¹ | 64% | 9.79 nM | 144000 M⁻¹ s⁻¹ | 
10 | IL6R08 (VHH, also called PMP34A12; PMP 34 A12) VHH: EVQLVESGGGLVQPGGSLRLSCVASGFSLDYYVIGWFRQAPGKEREGVSCISSSDGSTYYADSVKGRFTISRDNAKNTVYLQMNSLKPEDTAVYYCAADLLRTPEFCVDSAPYDYWGQGTQVTVSS | 36.6 nM | 42.9 nM |  | 0.00197 s⁻¹ | 99% | 10.2 nM | 194000 M⁻¹ s⁻¹ | 

Further lines, results first:

Row | IC50, XG-1 proliferation (IL6-R on U266 cells [1]) | IC50, TF-1 proliferation (IL6-R on U266 cells [2]) | koff (Human soluble IL6-R [3]) | koff (Human soluble IL6-R [4]) | % binding retained in competition with Reference-Fab (Human soluble IL6-R [5]) | Kd (Human soluble IL6-R [4]) | kon (Human soluble IL6-R [4]) | IC50, XG-1 proliferation with 1 mg/mL human serum albumin (IL6-R on U266 cells [6]) | Binder
11 |  |  | 0.002 s⁻¹ |  |  |  |  |  | PMP 34 E10 (VHH) VHH: EVQLVESGGGLVQAGGSLRLSCAASGRTFSSYAMGWGRQAPGKEREFVATISWSGGSTYYADSVKGRFTISRDNAKNTVYLQMNSLKPEDTAVYYCAADLAEFKYSDYADYWGQGTQVTVSS
12 | 5.99 nM |  |  | 0.00066 s⁻¹ |  | 0.86 nM | 768000 M⁻¹ s⁻¹ |  | Reference Fab (Fab, V domains shown, Anti-human IL-6R Fab according to EP 0 628 639, made in E. coli periplasm; also called Tocilizumab-Fab) VH: QVQLQESGPGLVRPSQTLSLTCTVSGYSITSDHAWSWVRQPPGRGLEWIGYISYSGITTYNPSLKSRVTMLRDTSKNQFSLRLSSVTAADTAVYYCARSLARTTAMDYWGQGSLVTVSS VL: DIQMTQSPSSLSASVGDRVTITCRASQDISSYLNWYQQKPGKAPKLLIYYTSRLHSGVPSRFSGSGSGTDFTFTISSLQPEDIATYYCQQGNTLPYTFGQGTKVEIKR
13 |  |  | 0.000503 s⁻¹ |  |  |  |  |  | PMP 34 E9 (VHH, also called PMP34E9(t)) VHH: EVQLVESGGGLVQPGGSLRLSCAASGFTLDYYAIGWFRQAPGKEREGVSCISSSDGSTYYADSVKGRFTISRDNAKNTVYLQMNSLKPEDTAAYYCATDRSVYYCSGDAPEEYYWGQGTQVTVSS
14 |  |  | 0.00014 s⁻¹ |  |  |  |  |  | PMP 34 G3 (VHH) VHH: EVQLVESGGGLVQPGGSLRLSCAASGFTLDYYAIGWFRQAPGKERERVSCISSSDGSTYYADSVKGRFTISRDNAKNTVYLQMNSLKPEDTAAYYCATDRSVYYCSGGAPEEYYWGQGTQVTVSS
15 | 0.603 nM | 1.75 nM | 0.000114 s⁻¹ | 0.0001 s⁻¹ and 0.000114 s⁻¹ | 96% | 0.25 nM | 402000 M⁻¹ s⁻¹ | 0.751 nM | IL6R14 (VHH, also called PMP40H5; PMP 40 H5) VHH: EVQLVESGGGLVQPGGSLRLSCAASGFSLDYYAIGWFRQAPGKEREGVSCMDSSSGTTSTYYSDSVKGRFTISRDDAKNTVYLQMNSLKPEDTAVYYCAADGHLNWGQRYVPCSQISWRGWNDYWGQGTQVTVSS
16 |  |  | 0.00134 s⁻¹ |  |  |  |  |  | PMP 28 B1 (VHH, also called PMP28B1(t)) VHH: EVQLVESGGGLVQPGGSLRLSCAASGFTLNYYAIGWFRQAPGKEREGVSCISSSDGSTYYADSVKGRFTISRDNAKNTFYLQMNSLKPEDTAVYYCAAEGLGDSDSPCGAAWYNDYWGQGTQVTVSS
